Results published in paper doi:10.1101/2022.10.14.512337.
Where “and” joins values, the source holds several entries; their conditions need not be identical. Identical values can stand only once.

What was measured:
[1] = molecular target: L. farciminis oxalate decarboxylase (OxDC), as used for size-exclusion chromatography (L. farciminis); assay: SEC
[2] = molecular target: truncated protein consisting of the main body of L. farciminis OxDC (aa 22-373) (L. farciminis); assay: crystal structure

stoichiometry N [1] | stoichiometry N [2] | Substance
2 and 6 | – | L. farciminis oxalate decarboxylase (OxDC), as used for size-exclusion chromatography (enzyme)
– | 6 | truncated protein consisting of the main body of L. farciminis OxDC (aa 22-373) (domain or fragment)
